Experiment [1] deals with primary cultures of neurons and astrocytes derived from hippocampal and cortical areas of rats' brains. Nature of the experiment: Caspase 3 activity assay (NucView 488) after Aβ 1–42 treatment. Particulars: pre-incubation 3 h with 10 μM peptide, then 1 h with 5 μM Aβ 1–42, NucView 488, confocal, mean (SEM) of N = 6–28 fields. The class given is cell-based, rat.
Method: Mixed cultures of hippocampal and cortical neurons and glial cells were prepared as described previously ([Vaarmann et al., 2010]) with modifications, from Sprague-Dawley rat pups 2–4 days post-partum (UCL breeding colony). […] Hippocampi and cortex were removed into ice-cold PBS (Ca^2+, Mg^2+-free, Invitrogen, Paisley, United Kingdom). The tissue was minced and trypsinised (0.25% for 15 min at 37°C), triturated and plated on Poly-D-lysine-coated coverslips and cultured in Neurobasal A medium (Invitrogen, Paisley, United Kingdom) supplemented with B-27 (Invitrogen, Paisley, United Kingdom) and 2 mM L-glutamine. […]
For the measurement of caspase 3 activation, cells were loaded for 15 min at room temperature with 10 μM NucView 488 caspase 3 substrate (Biotium, United States) in HBSS. […] The 488 nm argon laser was used to excite NucView 488 fluorescence, which was measured using a bandpass filter from 510 and 560 nm. […] The number of cells with activated caspase 3 and the number of all visible cells was quantified manually in each field and the percentage of dead cells was calculated by dividing the number of caspase 3-positive cells by the number of all cells counted in one field. The differences between the groups were evaluated using the two-sample t-test. All data were expressed as mean ± SEM. […]
The target of a further experiment is T1, Aβ 1–40 (Homo sapiens, UniProt P05067).
T1 construct: Lyophilized synthetic Aβ 1–40 was dissolved in mili-Q water; host or cells: chemical synthesis (synthetic peptide)
T1 sequence (P05067 672-711 limits assumed): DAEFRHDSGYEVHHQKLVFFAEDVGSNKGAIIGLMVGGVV
Briefly: Fluorescent titration of RAGE fragments by Aβ 1–40. The class given is binding. Particulars: tryptophan fluorescence titration with Aβ 1–40; 25 mM Tris-HCl, 100 mM NaCl, 5 mM EDTA, pH 7.5; peptide 0.5 μM (P1) or 2 μM (P2–P6); excitation 285 nm, emission 355 nm; mean ± SEM of three independent measurements. The procedure: The fluorescence titrations of synthetic peptides were performed using Fluoromax 3 fluorescence spectrophotometer (Horiba Jobin Yvon, Germany). Titrations were conducted in a quartz cuvette with 2 ml of titration buffer (25 mM Tris-HCl, 100 mM NaCl, 5 mM EDTA, pH 7.5). The concentration of peptide (60–76) which has two tryptophan residues was 0.5 μM. Whereas peptides (60–70), (60–62), (60–65), (62–73), and (65–76) have only one Trp residue, their concentration was 2 μM to enhance the signal. Lyophilized synthetic Aβ 1–40 was dissolved in mili-Q water at a concentration of 1 mM. […]
The fluorescence spectrum was measured after each addition of beta-amyloid. […] Emission was detected in the range of […]. The maximum of fluorescence intensity was found at 355 nm. […]
where [S] – concentration of Aβ 1–40 in cuvette; ΔF is the difference of intensity between experiment in absence of Aβ 1–40 and experiment with beta-amyloid at the certain concentration and ΔFmax is the maximal fluorescence change ([Huang et al., 2016]). […]
The dissociation constant Kd was found by multiplication of the calculated slope factor and ΔFmax. For each peptide the dissociation constant was measured three times independently. Dissociation constants were expressed as mean ± SEM. P-values were measured by Mann-Whitney test to estimate the differences between each of obtained dissociation constants.

The target in experiment [2] is Beta-amyloid 1-40 Abeta 1-40 (Homo sapiens, UniProt P05067). Nature of the experiment: tryptophan fluorescence titration.
Beta-amyloid 1-40 Abeta 1-40, sequence (P05067 1-40): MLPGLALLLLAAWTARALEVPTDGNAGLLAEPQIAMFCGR

Broadly, the Kd is the free concentration of one partner at which half of the binding sites on the other are occupied at equilibrium, for simple one-to-one binding. Read a low Kd as a tighter complex. “SPQGGGPWDSVA [Peptide P5, synthetic fragment (65–76) of human RAGE]”: the “Percentage of cells with activated caspase 3, Mean” value in experiment [1] worked out at 14.25%; in experiment [1] (SEM), 14.25 ± 3.22%. For the same molecule, the equilibrium dissociation constant (Kd) result at Aβ 1–40 is “No binding”.

Regarding AWKVLSPQGGGPWDSVA [RAGE fragment P1 (60-76)], the dissociation constant (Kd) in experiment [2] was determined as 1390 nM.

Turning to AWK [RAGE fragment P3 (60-62)], binding in experiment [2] was put at a Kd of 840 nM.

As for AWKVLSPQGGG [RAGE fragment P2 (60-70)], binding in experiment [2] was put at a Kd of 4060 nM.

Molecule AWKVLS [RAGE fragment P4 (60-65)] returned an equilibrium dissociation constant (Kd) in experiment [2] of 2810 nM.

In experiment [2], KVLSPQGGGPWD [RAGE fragment P6 (62-73)] displayed a dissociation constant Kd of 1530 nM.

The record behind these values is PMC6170785, “Synthetic Fragments of Receptor for Advanced Glycation End Products Bind Beta-Amyloid 1–40 and Protect Primary Brain Cells From Beta-Amyloid Toxicity” (Frontiers in Neuroscience, 2018).
